Reference: patent US11833164B2, “Methods of treating Fabry disease in patients having a mutation in the GLA gene” (Amicus Therapeutics, Inc., priority 2019, dated 2023)

System: mutant form of α-Gal A expressed in HEK-293 cells
Assay: HEK assay (GLP HEK / Migalastat Amenability Assay): α-Gal A activity in lysates of transiently transfected HEK-293 cells incubated with or without 10 μM migalastat
Assay type: cell-based, human
Conditions: for Absolute increase (% WT) / Relative increase: 10 μM migalastat versus baseline; for Baseline α-Gal A activity (% WT): absence of migalastat; for Baseline α-Gal A activity (% WT) / 10 μM migalastat α-Gal A activity (% WT): percentage of baseline wild-type α-Gal A activity; for 10 μM migalastat α-Gal A activity: incubated 5 days with 10 μM migalastat; for 10 μM migalastat α-Gal A activity (% WT): with 10 μM migalastat, 5 days
Method in brief: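 HEK-293 cells transiently transfected with mutant α-Gal A and incubated with or without 10 μM migalastat; lysate activity given as nmol free 4-MU released per mg protein per hour. Values are mean±SEM.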

[1] = lysates of HEK-293 cells transiently transfected with the mutant form, incubated 5 days in absence of migalastat, mean ± SEM
[2] = lysates of HEK-293 cells transiently transfected with the mutant form, mean ± SEM

Row | Molecule | Absolute increase (% WT) | Relative increase | Baseline α-Gal A activity (% WT) (mean ± SEM) | Baseline α-Gal A activity [1] | 10 μM migalastat α-Gal A activity [2] | 10 μM migalastat α-Gal A activity (% WT) (mean ± SEM) | Baseline α-Gal A activity (nmol/mg/hr) [1]
1 | F295V (protein) MQLRNPELHLGCALALRFLALVSWDIPGARALDNGLARTPTMGWLHWERFMCNLDCQEEPDSCISEKLFMEMAELMVSEGWKDAGYEYLCIDDCWMAPQRDSEGRLQADPQRFPHGIRQLANYVHSKGLKLGIYADVGNKTCAGFPGSFGYYDIDAQTFADWGVDLLKFDGCYCDSLENLADGYKHMSLALNRTGRSIVYSCEWPLYMWPFQKPNYTEIRQYCNHWRNFADIDDSWKSIKSILDWTSFNQERIVDVAGPGGWNDPDMLVIGNFGLSWNQQVTQMALWAIMAAPLVMSNDLRHISPQAKALLQDKDVIAINQDPLGKQGYQLRQGDNFEVWERPLSGLAWAVAMINRQEIGGPRSYTIAVASLGKGVACNPACFITQLLPVKRKLGFYEWTSRLRSHINPTGTVLLQLENTMQMSLKDLL | 48.0 % WT | 1.7 | 73.4 ± 5.7 % WT | 24973 ± 1752 nmol/mg/h | 41782 ± 2877 nmol/mg/h | 121.5 ± 7.7 % WT | –
2 | N298T (protein) MQLRNPELHLGCALALRFLALVSWDIPGARALDNGLARTPTMGWLHWERFMCNLDCQEEPDSCISEKLFMEMAELMVSEGWKDAGYEYLCIDDCWMAPQRDSEGRLQADPQRFPHGIRQLANYVHSKGLKLGIYADVGNKTCAGFPGSFGYYDIDAQTFADWGVDLLKFDGCYCDSLENLADGYKHMSLALNRTGRSIVYSCEWPLYMWPFQKPNYTEIRQYCNHWRNFADIDDSWKSIKSILDWTSFNQERIVDVAGPGGWNDPDMLVIGNFGLSWNQQVTQMALWAIMAAPLFMSTDLRHISPQAKALLQDKDVIAINQDPLGKQGYQLRQGDNFEVWERPLSGLAWAVAMINRQEIGGPRSYTIAVASLGKGVACNPACFITQLLPVKRKLGFYEWTSRLRSHINPTGTVLLQLENTMQMSLKDLL | 14.2 % WT | 1.2 | 61.2 ± 4.7 % WT | 20581 ± 1736 nmol/mg/h | 25249 ± 1705 nmol/mg/h | 75.4 ± 4.3 % WT | –
3 | D299N (protein) MQLRNPELHLGCALALRFLALVSWDIPGARALDNGLARTPTMGWLHWERFMCNLDCQEEPDSCISEKLFMEMAELMVSEGWKDAGYEYLCIDDCWMAPQRDSEGRLQADPQRFPHGIRQLANYVHSKGLKLGIYADVGNKTCAGFPGSFGYYDIDAQTFADWGVDLLKFDGCYCDSLENLADGYKHMSLALNRTGRSIVYSCEWPLYMWPFQKPNYTEIRQYCNHWRNFADIDDSWKSIKSILDWTSFNQERIVDVAGPGGWNDPDMLVIGNFGLSWNQQVTQMALWAIMAAPLFMSNNLRHISPQAKALLQDKDVIAINQDPLGKQGYQLRQGDNFEVWERPLSGLAWAVAMINRQEIGGPRSYTIAVASLGKGVACNPACFITQLLPVKRKLGFYEWTSRLRSHINPTGTVLLQLENTMQMSLKDLL | 7.8 % WT | 1.2 | 29.2 ± 4.7 % WT | 11973 ± 1961 nmol/mg/h | 14668 ± 809 nmol/mg/h | 37.1 ± 2.9 % WT | –
4 | D299H (protein) MQLRNPELHLGCALALRFLALVSWDIPGARALDNGLARTPTMGWLHWERFMCNLDCQEEPDSCISEKLFMEMAELMVSEGWKDAGYEYLCIDDCWMAPQRDSEGRLQADPQRFPHGIRQLANYVHSKGLKLGIYADVGNKTCAGFPGSFGYYDIDAQTFADWGVDLLKFDGCYCDSLENLADGYKHMSLALNRTGRSIVYSCEWPLYMWPFQKPNYTEIRQYCNHWRNFADIDDSWKSIKSILDWTSFNQERIVDVAGPGGWNDPDMLVIGNFGLSWNQQVTQMALWAIMAAPLFMSNHLRHISPQAKALLQDKDVIAINQDPLGKQGYQLRQGDNFEVWERPLSGLAWAVAMINRQEIGGPRSYTIAVASLGKGVACNPACFITQLLPVKRKLGFYEWTSRLRSHINPTGTVLLQLENTMQMSLKDLL | 22.1 % WT | 23.5 | 1 ± 0.1 % WT | 358 ± 36 nmol/mg/h | 8424 ± 875 nmol/mg/h | 23.1 ± 2.4 % WT | –
5 | N298D (protein) MQLRNPELHLGCALALRFLALVSWDIPGARALDNGLARTPTMGWLHWERFMCNLDCQEEPDSCISEKLFMEMAELMVSEGWKDAGYEYLCIDDCWMAPQRDSEGRLQADPQRFPHGIRQLANYVHSKGLKLGIYADVGNKTCAGFPGSFGYYDIDAQTFADWGVDLLKFDGCYCDSLENLADGYKHMSLALNRTGRSIVYSCEWPLYMWPFQKPNYTEIRQYCNHWRNFADIDDSWKSIKSILDWTSFNQERIVDVAGPGGWNDPDMLVIGNFGLSWNQQVTQMALWAIMAAPLFMSDDLRHISPQAKALLQDKDVIAINQDPLGKQGYQLRQGDNFEVWERPLSGLAWAVAMINRQEIGGPRSYTIAVASLGKGVACNPACFITQLLPVKRKLGFYEWTSRLRSHINPTGTVLLQLENTMQMSLKDLL | 21.7 % WT | 9.6 | 2.5 ± 0.2 % WT | 795 ± 56 nmol/mg/h | 7645 ± 388 nmol/mg/h | 24.2 ± 1.2 % WT | –
6 | S297T (protein) MQLRNPELHLGCALALRFLALVSWDIPGARALDNGLARTPTMGWLHWERFMCNLDCQEEPDSCISEKLFMEMAELMVSEGWKDAGYEYLCIDDCWMAPQRDSEGRLQADPQRFPHGIRQLANYVHSKGLKLGIYADVGNKTCAGFPGSFGYYDIDAQTFADWGVDLLKFDGCYCDSLENLADGYKHMSLALNRTGRSIVYSCEWPLYMWPFQKPNYTEIRQYCNHWRNFADIDDSWKSIKSILDWTSFNQERIVDVAGPGGWNDPDMLVIGNFGLSWNQQVTQMALWAIMAAPLFMTNDLRHISPQAKALLQDKDVIAINQDPLGKQGYQLRQGDNFEVWERPLSGLAWAVAMINRQEIGGPRSYTIAVASLGKGVACNPACFITQLLPVKRKLGFYEWTSRLRSHINPTGTVLLQLENTMQMSLKDLL | 9.7 % WT | – | – | – | 3178 ± 327 nmol/mg/h | 9.7 ± 0.8 % WT | BLD (“BLD” indicates that the mean α-Gal A activity was below the limit of detection (<142 nmol/mg/hr))
7 | L300I (protein) MQLRNPELHLGCALALRFLALVSWDIPGARALDNGLARTPTMGWLHWERFMCNLDCQEEPDSCISEKLFMEMAELMVSEGWKDAGYEYLCIDDCWMAPQRDSEGRLQADPQRFPHGIRQLANYVHSKGLKLGIYADVGNKTCAGFPGSFGYYDIDAQTFADWGVDLLKFDGCYCDSLENLADGYKHMSLALNRTGRSIVYSCEWPLYMWPFQKPNYTEIRQYCNHWRNFADIDDSWKSIKSILDWTSFNQERIVDVAGPGGWNDPDMLVIGNFGLSWNQQVTQMALWAIMAAPLFMSNDIRHISPQAKALLQDKDVIAINQDPLGKQGYQLRQGDNFEVWERPLSGLAWAVAMINRQEIGGPRSYTIAVASLGKGVACNPACFITQLLPVKRKLGFYEWTSRLRSHINPTGTVLLQLENTMQMSLKDLL | 34.4 % WT | 2.6 | 20.7 ± 0.9 % WT | 7328 ± 448 nmol/mg/h | 19317 ± 757 nmol/mg/h | 55.1 ± 2 % WT | –
8 | N298I (protein) MQLRNPELHLGCALALRFLALVSWDIPGARALDNGLARTPTMGWLHWERFMCNLDCQEEPDSCISEKLFMEMAELMVSEGWKDAGYEYLCIDDCWMAPQRDSEGRLQADPQRFPHGIRQLANYVHSKGLKLGIYADVGNKTCAGFPGSFGYYDIDAQTFADWGVDLLKFDGCYCDSLENLADGYKHMSLALNRTGRSIVYSCEWPLYMWPFQKPNYTEIRQYCNHWRNFADIDDSWKSIKSILDWTSFNQERIVDVAGPGGWNDPDMLVIGNFGLSWNQQVTQMALWAIMAAPLFMSIDLRHISPQAKALLQDKDVIAINQDPLGKQGYQLRQGDNFEVWERPLSGLAWAVAMINRQEIGGPRSYTIAVASLGKGVACNPACFITQLLPVKRKLGFYEWTSRLRSHINPTGTVLLQLENTMQMSLKDLL | 34.9 % WT | 4.7 | 9.2 ± 0.7 % WT | 2942 ± 262 nmol/mg/h | 13906 ± 535 nmol/mg/h | 44.1 ± 1.8 % WT | –
9 | F295Y (protein) MQLRNPELHLGCALALRFLALVSWDIPGARALDNGLARTPTMGWLHWERFMCNLDCQEEPDSCISEKLFMEMAELMVSEGWKDAGYEYLCIDDCWMAPQRDSEGRLQADPQRFPHGIRQLANYVHSKGLKLGIYADVGNKTCAGFPGSFGYYDIDAQTFADWGVDLLKFDGCYCDSLENLADGYKHMSLALNRTGRSIVYSCEWPLYMWPFQKPNYTEIRQYCNHWRNFADIDDSWKSIKSILDWTSFNQERIVDVAGPGGWNDPDMLVIGNFGLSWNQQVTQMALWAIMAAPLYMSNDLRHISPQAKALLQDKDVIAINQDPLGKQGYQLRQGDNFEVWERPLSGLAWAVAMINRQEIGGPRSYTIAVASLGKGVACNPACFITQLLPVKRKLGFYEWTSRLRSHINPTGTVLLQLENTMQMSLKDLL | 36.3 % WT | 1.6 | 62.9 ± 6.1 % WT | 21452 ± 1929 nmol/mg/h | 34502 ± 2504 nmol/mg/h | 99.2 ± 6.5 % WT | –
